Values quoted from earlier work, collected in article PMC10474648, “Design of chimeric GLP-1A using oligomeric bile acids to utilize transporter-mediated endocytosis for oral delivery” (Biomaterials Research, 2023).
pKd: −log10 of the molar value.

Legend:
[1] = cited from earlier work
From the text: Diabetes is a representative chronic disease that requires lifetime management. Because of the need for frequent and combination dosing, most hypoglycemic therapeutics are small molecule-based oral drugs.

[2] = biological target: GLP-1R; conditions: read-out: Kd, GLP-1R binding; cited from earlier work
From the text: Cellular penetration may occur by two pathways: the paracellular and transcellular pathways. […] Additionally, ...

Substance | Half-life [1] | pKd [2]
semaglutide | 170 h | 9.42
dulaglutide | 120 h | –
